Reference: patent publication US20030108554A1 (published 2003)
Positions count from the first letter of the chain named.

B1: GIP130b (other)
chain: MRSRGSDTEGSAQKKFPRHTKGHSFQGPKNMKHRQQDKDSPSESDVILPCPKAEKPHSGNGHQAEDLSRDDLLFLLSILEGELQARDEVIGILKAEKMDLALLEAQYGFVTPKKVLEALQRDAFQAKSTPWQEDIYEKPMNELDKVVEKHKESYRRILGQLLVAEKSHRQTILELEEEKRKHKEYMEKSDEFICLLEQECERLKKLIDQEIKSQEEKEQEKEKRVTTLKEELTKLKSFALMVVDEQQRLTAQLTLQRQKIQELTTNAKETHTKLALAEARVQEEEQKATRLEKELQTQTTKFHQDQDTIMAKLTNEDSQNRQLQQKLAALSRQIDELEETNRSLRKAEEELQDIKEKISKGEYGNAGIMAEVEELRKRVLDMEGKDEELIKMEEQCRDLNKRLERETLQSKDFKLEVEKLSKRIMALEKLEDAFNKSKQECYSLKCNLEKERMTTKQLSQELESLKVRIKELEAIESRLEKTEFTLKEDLTKLKTLTVMFVDERKTMSEKLKKTEDKLQAASSQLQVEQNKVTTVTEKLIEETKRALKSKTDVEEKMYSVTKERDDLKNKLKAEEEKGNDLLSRVNMLKNRLQSLEAIEKDFLKNKLNQDSGKSTTALHQENNKIKELSQEVERLKLKLKDMKAIEDDLMKTEDEYETLERRYANERDKAQFLSKELEHVKMELAKYKLAEKTETSHEQWLFKRLQEEEAKSGHLSREVDALKEKIHEYMATEDLICHLQGDHSVLQKKLNQQENRNRDLGREIENLTKELERYRHFSKSLRPSLNGRRISDPQVFSKEVQTEAVDNEPPDYKSLIPLERAVINGQLYEESENQDEDPNDEGSVLSFKCSQSTPCPVNRKLWIPWMKSKEGHLQNGKMQTKPNANFVQPGDLVLSHTPGQPLHIKVTPDHVQNTATLEITSPTTESPHSYTSTAVIPNCGTPKQRITILQNASITPVKSKTSTEDLMNLEQGMSPITMATFARAQTPESCGSLTPERTMSPIQVLAVTGSASSPEQGRSPEPTEISAKHAIFRVSPDRQSSWQFQRSNSNSSSVITTEDNKIHIHLGSPYMQAVASPVRPASPSAPLQDNRTQGLINGALNKTTNKVTSSITITPTATPLPRQSQITVSNIYN
notes: Full length; tested as GAL4 domain fusion in yeast two-hybrid
B2: GIP130c (other)
chain: B1 chain with H168R
notes: as for B1
B3: GIP130a (other)
chain: MRSRGSDTEGSAQKKFPRHTKGHSFQGPKNMKHRQQDKDSPSESDVILPCPKAEKPHSGNGHQAEDLSRDDLLFLLSILEGELQARDEVIGILKAEKMDLALLEAQYGFVTPKKVLEALQRDAFQAKSTPWQEDIYEKPMNELDKVVEKHKESYRRILGQLLVAEKSRRQTILELEEEKRKHKEYMEKSDEFICLLEQECERLKKLIDQEIKSQEEKEQEKEKRVTTLKEELTKLKSFALMVVDEQQRLTAQLTLQRQKIQELTTNAKETHTKLALAEARVQEEEQKATRLEKELQTQTTKFHQDQDTIMAKLTNEDSQNRQLQQKLAALSRQIDELEETNRSLRKAEEELQDIKEKISKGEYGNAGIMAEVEELRKRVLDMEGKDEELIKMEEQCRDLNKRLERETLQSKDFKLEVEKLSKRIMALEKLEDAFNKSKQECYSLKCNLEKERMTTKQLSQELESLKVRIKELEAIESRLEKTEFTLKEDLTKLKTLTVMFVDERKTMSEKLKKTEDKLQAASSQLQVEQNKVTTVTEKLIEETKRALKSKTDVEEKMYSVTKERDDLKNKLKAEEEKGNDLLSRVNMLKNRLQSLEAIEKDFLKNKLNQDSGKSTTALHQENNKIKELSQEVERLKLKLKDMKAIEDDLMKTEDEYETLERRYANERDKAQFLSKELEHVKMELAKYKLAEKTETSHEQWLFKRLQEEEAKSGHLSREVDALKEKIHEYMATEDLICHLQGDHSVLQKKLNQQENRNRDLGREIENLTKELERYRHFSKSLRPSLNGRRISDPQVFSKEVQTEAVDNEPPDYKSLIPLERAVINGQLYEESENQDEDPNDEGSVLSFKCSQSTPCPVNRKLWIPWMKSKEGHLQNGKMQTKPNANFVQPGDLVLSHTPGQPLHIKVTPDHVQNTATLEITSPTTESPHSYTSTAVIPNCGTPKQRITILQNASITPVKSKTSTEDLMNLEQGMSPITMATFARAQTPESCGSLTPERTMSPIQVLAVTGSASSPEQGRSPEPTEISAKHAIFRVSPDRQSSWQFQRSNSNSSSVITTEDNKIHIHLGSPYMQAVASPVRPASPSAPLQDNRTQGLINGALNKTTNKVTSSITITPTATPLPRQSQITVEPLLLPH
notes: as for B1

Legend:
Assay in all cases: yeast two-hybrid
GIP130a = biological target: B3
yeast two-hybrid = biological target: the molecule itself
GIP130c = biological target: B2

binding result (GIP130a) | binding result (GIP130c) | Binder | binding result (yeast two-hybrid)
binds | binds | B1 | binds
binds | – | B2 | binds
– | – | B3 | binds
